From patent publication US7422849B1, “Method for determining expression of a PI3 kinase gene” (Ludwig Institute for Cancer Research, priority 1992, dated 2008)
Like-named read-outs stand apart in the source and are kept apart here.

Columns and labels:
CSF-1 receptor = biological target: T1, CSF-1 receptor (Homo sapiens, UniProt P07333); test: In vitro association of PI3-kinase activity with the CSF-1 receptor; type: binding; conditions: Sf9 cell lysates, receptor phosphorylated with ATP before incubation
T1 construct: made in house; host or cells: Sf9 insect cells (baculovirus)
Method: This assay was performed essentially as described by Kazlauskas and Cooper (1990). Sf9 cells were infected as already described and lysed 48 h post-infection in EB lysis buffer. CSF-1 receptor was immunoprecipitated from Sf9 cells and collected on Protein A-Sepharose beads. The immunocomplex was then subjected to extensive washing (3 times with EB lysis buffer, twice with kinase buffer; 50 mM HEPES (pH 7.4), 150 mM NaCl, 0.02% Triton X-100, 12 mM MgCl2, 2 mM MnCl2, 10% glycerol, 500 μM sodium orthovanadate) and the receptor phosphorylated for 15 min at 20° C. with ATP. The precipitates were then washed again to remove free ATP and incubated for 2 h at 4° C. with cell lysates prepared from Sf9 cells infected with viruses expressing (i) p85α, (ii) p110 or (iii) co-infected with viruses expressing p85α and p110. The immune complexes were washed and assayed for associated PI3-kinase activity.

[1] = PI3-kinase assay on immunoprecipitates from transfected COS-1 cells; type: biochemical; conditions: anti-p110 antiserum
Method: (§1) The assay for PI3-kinase activity was carried out as described by Whitman et al. (1985).
For transient expression of p85α in COS-1 cells the coding region for p85α was cloned into the adenovirus late promoter based expression vector pMT2 (Kaufman et al, 1989) as previously described (Otsu et al, 1991). For expression of the p110 cDNA plasmid pSG5-p110 was constructed as follows. The 3.4 kb BamHl-HindIII fragment from cDNA p2.1 was ligated into pSG5 (Stratagene) cut with BamHl and BglII, the HindIII and BglII overhangs of p2.1 and pSG5 respectively, being filled in with Klenow polymerase. This gave construct pSG5.2. Plasmid pBS/race (above) was digested with EcoRl and Hindlll, the 350 bp band gel purified by electroelution (Maniatis et al, 1982) and further digested with Sau3Al and Bsml. This mixture was then added to the gel purified Bsml-BstMl fragment from p2.1 and ligated in a three fragment ligation to pSG5.2 digested with BamHl and BstXl. […] Lysates were analysed by immunoprecipitation with anti-p85α polyclonal antiserum or with anti-p110 C-terminal peptide antiserum. Immunocomplexes collected on Protein A-Sepharose beads were analysed either on 10% SDS-PAGE gels followed by autoradiography or subjected to in vitro PI3-kinase assays as described.

[2] = PI3-kinase assay on immunoprecipitates from baculovirus infected Sf9 cells; type: biochemical; conditions: expressed in Sf9 cells
Method: as §1
To clone the p110 coding region into the baculovirus transfer vector p36C (Page, 1989) a Sau 3A1 site (GGATCA) present 10 nucleotides upstream from the initiation codon (see FIG. 9) was changed to a BamHI (GGATCC site by PCR mediated mutagenesis. Briefly, a sense oligonucleotide substituting C for A at position 6 of the Sau3A1 site was used in a PCR reaction with an antisense primer comprising nucleotides (102-124) of the p110 sequence. (see FIG. 9) using Vent polymerase (New England Biolabs). Template DNA was random-primed first strand cDNA prepared from SGBAF-1 cell mRNA as described above; PCR conditions: 94° C. 1 min, 50° C. 1 min, 72° C. 2 min, 35 cycles. The PCR product was digested with BamHl-EcoNl and a 118 bp fragment isolated from a low melting point agarose gel. […] The BamHl-EcoNl fragment of p110/(BamHl) was sequenced and found to agree with that previously determined. […] Cells were harvested and lysed 2 days post-infection in EB lysis buffer (20 mM Tris-HCl (pH 7.4), 50 mM NaCl, 50 mM NaF, 1% NP40, 1 mM EDTA, 500 μM sodium orthovanadate, 2 mM PMSF, 100 Kallikrein inhibitor units of Aprotinin ml^−1) (Kazlauskas and Cooper, 1989) and lysates were analysed by […].

p85α [3] = biological target: T2, p85α (Bos taurus, UniProt P23727); test: Binding of baculovirus expressed p85α to peptide columns; parameters: made in house; host or cells: Sf9 insect cells (baculovirus pAcC4-p85α); species or system bovine
Method: (§2) Proteins were diluted in binding buffer (50 mM phosphate buffer (pH 7.2), 150 mM NaCl, 0.02% Triton X-100, 2 mM EDTA and 200 μM sodium orthovanadate), mixed with the appropriate peptide affinity resin and then allowed to bind for 2 h at 4° C. with rotation. The column material was washed repeatedly (>6×) with 50 column volumes of the same buffer and then with various elution buffers containing NaCl, urea or detergents. Bound proteins were either assayed for PI3-kinase activity or were removed from the column by boiling in SDS-PAGE sample buffer and then analysed by SDS-PAGE.
Baculovirus expressed bovine p85α and p85β were chosen to test these columns (Otsu et al, 1991).

Y751 phosphopeptide = test: phosphopeptide affinity resin, single incubation; PI3-kinase assay
bovine brain PI3-kinase = biological target: T3, bovine brain PI3-kinase (Bos taurus, UniProt P23727); test: Binding of partially purified bovine brain PI3-kinase to peptide affinity columns
T3 construct: P13-kinase purified from bovine brain is a complex of p85α and p10; from tissue; host or cells: bovine brain
Method: as §2

bovine p85β = biological target: T4, bovine p85β (bovine, UniProt P23726 1-724); test: deletion mutants and PCR fragments of p110-N; retention of p85
T4 construct: Expressed by baculovirus in Sf9 cells or in COS-1 cells; also called baculovirus expressed p85β
From the text: (§3) The interation of the p85 and p110 subunits of PI3-kinase are thought to be required for the activity of the kinase in mammalian cells. Thus inhibiting the interaction between the subunits could provide a means of inhibiting the activity of this signal transduction pathway. In order to design reagents to p110 which will block the interaction, it is useful to define the region of […] which binds to the p85 subunits. To do this a series of mutants were constructed which express various domains of the […] protein (FIG. 23B). These fragments were expressed as GST fusion proteins in bacteria. The proteins were then bound to a glutathione sepharose column (Pharmicia) according to the manufacturer's instructions (Panayotou G et al (1992) Embo J 11:4261-4272). The ability of these protein fragments to bind the p85 subunits was assessed by the ability of the column specifically to retain p85 subunits purified from baculovirus (Otsu et al (1991) Cell 65:91-104). […] To further characterise the binding domain, deletion mutants and PCR fragments were made from the p110-N fragment as shown in FIG. 24. […] Removal of a further 20 amino acids from either the amino or carboxy termini led to loss of binding activity. Now that this domain has been identified it allows the design of specific peptides, antibodies or small molecules which can inhibit the interaction between the subunits.

bovine p85α = biological target: T5, bovine p85α (bovine, UniProt P23727 1-724); test: as above
T5 construct: Expressed by baculovirus in Sf9 cells or from pMT2-p85α in COS-1 cells, or native from bovine brain; which one is said under assay; also called 85 kD subunit; baculovirus expressed p85α
From the text: as §3

p85β = biological target: T6, p85β (Bos taurus, UniProt P23726); test: Retention of p85β by GST-p110 fragments on glutathione sepharose column; type: binding; conditions: GST fusion protein expressed in bacteria
T6 construct: made in house; host or cells: baculovirus / insect cells
From the text: as §3

p85α [4] = biological target: T2, p85α; test: Retention of p85α by GST-p110 fragments on glutathione sepharose column; type: binding; parameters: made in house; host or cells: baculovirus / insect cells; conditions: GST fusion protein expressed in bacteria
From the text: as §3

T2 sequence (P23727 whole entry): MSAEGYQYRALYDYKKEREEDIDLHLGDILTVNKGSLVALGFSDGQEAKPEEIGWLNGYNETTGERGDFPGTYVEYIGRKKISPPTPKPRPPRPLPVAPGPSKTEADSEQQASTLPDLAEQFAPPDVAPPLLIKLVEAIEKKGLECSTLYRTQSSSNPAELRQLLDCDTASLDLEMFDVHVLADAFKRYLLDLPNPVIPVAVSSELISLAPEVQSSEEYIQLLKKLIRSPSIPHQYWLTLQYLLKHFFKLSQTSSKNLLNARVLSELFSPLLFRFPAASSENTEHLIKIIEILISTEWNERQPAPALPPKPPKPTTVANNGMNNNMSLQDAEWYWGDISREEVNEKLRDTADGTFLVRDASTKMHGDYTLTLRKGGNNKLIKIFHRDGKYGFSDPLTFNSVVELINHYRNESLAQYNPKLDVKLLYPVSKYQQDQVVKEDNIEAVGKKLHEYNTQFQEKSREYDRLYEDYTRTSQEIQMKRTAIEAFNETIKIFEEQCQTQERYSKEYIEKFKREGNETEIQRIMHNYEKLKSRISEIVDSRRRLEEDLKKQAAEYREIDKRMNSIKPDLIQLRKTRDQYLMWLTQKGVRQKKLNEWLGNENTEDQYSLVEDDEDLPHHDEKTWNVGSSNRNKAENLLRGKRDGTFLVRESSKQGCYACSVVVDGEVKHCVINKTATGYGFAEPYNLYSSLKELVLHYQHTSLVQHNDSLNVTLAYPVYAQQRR
T6 sequence (P23726 whole entry, the tested form may be a part): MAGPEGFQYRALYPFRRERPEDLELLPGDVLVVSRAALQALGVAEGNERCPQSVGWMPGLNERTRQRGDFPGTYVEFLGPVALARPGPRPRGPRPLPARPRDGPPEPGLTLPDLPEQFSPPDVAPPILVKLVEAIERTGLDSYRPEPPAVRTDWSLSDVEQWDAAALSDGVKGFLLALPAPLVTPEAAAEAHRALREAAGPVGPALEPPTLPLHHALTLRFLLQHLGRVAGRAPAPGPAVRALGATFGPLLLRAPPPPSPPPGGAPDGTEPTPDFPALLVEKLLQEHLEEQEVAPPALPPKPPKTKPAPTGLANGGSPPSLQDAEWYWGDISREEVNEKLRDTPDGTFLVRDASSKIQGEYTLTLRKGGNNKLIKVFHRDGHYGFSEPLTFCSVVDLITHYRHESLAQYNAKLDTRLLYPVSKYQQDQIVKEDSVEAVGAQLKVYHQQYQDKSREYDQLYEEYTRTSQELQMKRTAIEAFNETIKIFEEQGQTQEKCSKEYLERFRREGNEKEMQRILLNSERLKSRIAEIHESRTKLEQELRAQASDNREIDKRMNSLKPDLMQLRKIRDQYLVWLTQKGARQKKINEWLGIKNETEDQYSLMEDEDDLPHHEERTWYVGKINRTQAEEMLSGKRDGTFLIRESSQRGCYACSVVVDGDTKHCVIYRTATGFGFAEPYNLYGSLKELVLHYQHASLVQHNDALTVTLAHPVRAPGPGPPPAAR
T4 sequence (P23726 whole entry, the tested form may be a part): as above
T5 sequence (P23727 whole entry): as the sequence (P23727 whole entry) above
T1 sequence (P07333 20-972): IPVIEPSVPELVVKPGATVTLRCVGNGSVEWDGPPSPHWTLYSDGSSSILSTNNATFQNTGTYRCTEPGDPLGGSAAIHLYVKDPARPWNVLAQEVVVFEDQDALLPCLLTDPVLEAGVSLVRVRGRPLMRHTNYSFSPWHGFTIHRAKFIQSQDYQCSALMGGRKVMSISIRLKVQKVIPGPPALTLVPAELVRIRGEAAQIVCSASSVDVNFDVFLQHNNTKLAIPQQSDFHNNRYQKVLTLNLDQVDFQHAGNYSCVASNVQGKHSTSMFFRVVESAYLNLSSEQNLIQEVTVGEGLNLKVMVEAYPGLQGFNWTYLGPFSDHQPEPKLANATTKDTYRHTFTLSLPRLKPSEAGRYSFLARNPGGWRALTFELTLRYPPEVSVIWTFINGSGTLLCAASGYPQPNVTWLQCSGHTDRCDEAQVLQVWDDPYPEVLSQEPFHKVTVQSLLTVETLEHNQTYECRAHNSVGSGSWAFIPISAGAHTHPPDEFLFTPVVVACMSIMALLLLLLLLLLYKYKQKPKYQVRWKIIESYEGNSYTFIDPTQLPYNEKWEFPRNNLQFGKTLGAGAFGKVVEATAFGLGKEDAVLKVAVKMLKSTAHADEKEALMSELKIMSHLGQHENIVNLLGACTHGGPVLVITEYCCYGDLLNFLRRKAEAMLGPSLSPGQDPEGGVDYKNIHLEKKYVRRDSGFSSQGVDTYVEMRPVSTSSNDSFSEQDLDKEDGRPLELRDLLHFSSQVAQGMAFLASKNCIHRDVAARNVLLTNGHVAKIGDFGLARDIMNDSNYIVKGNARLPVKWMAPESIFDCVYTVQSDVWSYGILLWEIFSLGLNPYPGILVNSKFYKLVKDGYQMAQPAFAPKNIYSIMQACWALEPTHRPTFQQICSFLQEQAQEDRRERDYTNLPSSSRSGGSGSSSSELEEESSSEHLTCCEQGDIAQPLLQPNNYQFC
T3 sequence (P23727 whole entry): as the sequence (P23727 whole entry) above
T3 sequence (P32871 whole entry partner): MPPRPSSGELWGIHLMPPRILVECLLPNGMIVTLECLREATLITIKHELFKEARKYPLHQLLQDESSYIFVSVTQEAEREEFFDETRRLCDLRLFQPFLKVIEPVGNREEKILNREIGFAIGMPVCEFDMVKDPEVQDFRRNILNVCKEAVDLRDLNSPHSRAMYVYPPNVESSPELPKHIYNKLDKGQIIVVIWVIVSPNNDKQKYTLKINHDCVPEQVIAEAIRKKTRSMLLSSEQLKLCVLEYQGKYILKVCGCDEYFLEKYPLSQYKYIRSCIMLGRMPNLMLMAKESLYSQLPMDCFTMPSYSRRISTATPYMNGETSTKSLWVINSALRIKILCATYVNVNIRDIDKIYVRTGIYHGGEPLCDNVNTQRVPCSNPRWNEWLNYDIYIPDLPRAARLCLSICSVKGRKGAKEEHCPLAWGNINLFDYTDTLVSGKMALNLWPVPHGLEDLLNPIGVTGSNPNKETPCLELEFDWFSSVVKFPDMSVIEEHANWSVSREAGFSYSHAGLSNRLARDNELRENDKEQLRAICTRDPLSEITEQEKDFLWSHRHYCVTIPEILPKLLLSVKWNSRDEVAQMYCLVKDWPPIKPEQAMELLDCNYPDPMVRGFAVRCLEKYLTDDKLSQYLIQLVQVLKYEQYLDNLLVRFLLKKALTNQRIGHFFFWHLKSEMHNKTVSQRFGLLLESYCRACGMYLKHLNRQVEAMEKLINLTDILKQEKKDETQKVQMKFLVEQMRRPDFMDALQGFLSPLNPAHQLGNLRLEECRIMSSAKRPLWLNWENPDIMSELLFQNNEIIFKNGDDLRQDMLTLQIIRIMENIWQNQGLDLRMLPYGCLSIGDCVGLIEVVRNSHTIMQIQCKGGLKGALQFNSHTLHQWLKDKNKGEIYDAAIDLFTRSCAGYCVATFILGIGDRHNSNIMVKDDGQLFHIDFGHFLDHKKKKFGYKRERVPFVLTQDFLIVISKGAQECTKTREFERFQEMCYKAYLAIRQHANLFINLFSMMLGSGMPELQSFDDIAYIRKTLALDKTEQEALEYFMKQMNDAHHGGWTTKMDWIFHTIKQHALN

p110: bovine PI3-kinase 110 kD subunit, 1068 amino acids, calculated molecular mass 124,247
association of PI3-kinase activity with CSF-1 receptor (CSF-1 receptor): No PI3-kinase activity associates | PI3-kinase activity of anti-p110 immunoprecipitates [1]: no activity above that present in control immunoprecipitates | PI3-kinase activity of immunoprecipitates [2]: significant levels of PI3-kinase activity

A R D I M R D S N Y I S K G S T F (ARDIMRDSNYISKGSTF) [Peptide Y587, 17 amino acid phosphopeptide around the second major tyrosine phosphorylation site in the PDGF β-receptor]
binding of baculovirus expressed p85α to the peptide column (p85α [3]; Sf9 cell lysate, SDS-PAGE of bound proteins): bind both columns to a similar extent

partially purified bovine brain PI3-kinase (p85α/p110 complex) (from UniProt P23727 2-724; P32871 1-1068) (enzyme)
PI3-kinase activity removed by the column (Y751 phosphopeptide): > 90%

p85α: 85 kD subunit of PI3-kinase, baculovirus expressed
association of PI3-kinase activity with CSF-1 receptor (CSF-1 receptor): No PI3-kinase activity associates | PI3-kinase activity of immunoprecipitates [2]: inactive

D M S K D E S V D Y V P M L D M K [Y751 phosphopeptide]
binding of baculovirus expressed p85α to the peptide column (p85α [3]): bind both columns to a similar extent | PI3-kinase activity removed from Mono Q peaks 1 or peak 2 by the column (bovine brain PI3-kinase): > 90%

B1: human p110 19-110 with a further 20 amino acids removed from the carboxy terminus (other)
chain: RILVECLLPNGMIVTLECLREATLITIKHELFKEARKYPLHQLLQDESSYIFVSVTQEAEREEFFDETRRLC
notes: Limits 19-90 are calculated from 'Removal of a further 20 amino acids'
binding result (bovine p85β): no binding | binding result (bovine p85α): no binding

B2: human p110 19-110 with a further 20 amino acids removed from the amino terminus (other)
chain: EATLITIKHELFKEARKYPLHQLLQDESSYIFVSVTQEAEREEFFDETRRLCDLRLFQPFLKVIEPVGNREE
notes: Limits 39-110 are calculated from 'Removal of a further 20 amino acids'
binding result (bovine p85β): no binding | binding result (bovine p85α): no binding

B3: amino acids 19-110 of human p10: domain of human p110, amino acids 19-110, from deletion mutants of p110-N (protein, UniProt P42336 19-110, looked up, fragment)
chain: RILVECLLPNGMIVTLECLREATLITIKHELFKEARKYPLHQLLQDESSYIFVSVTQEAEREEFFDETRRLCDLRLFQPFLKVIEPVGNREE
ability of p110 fragment to bind p85β subunit (p85β): sufficient to associate with the p85 subunits | ability of p110 fragment to bind p85α subunit (p85α [4]): sufficient to associate with the p85 subunits

B4: p110-N: GST fusion of human p110 fragment αα1-128 (protein)
chain: MPPRPSSGELWGIHLMPPRILVECLLPNGMIVTLECLREATLITIKHELFKEARKYPLHQLLQDESSYIFVSVTQEAEREEFFDETRRLCDLRLFQPFLKVIEPVGNREEKILNREIGFAIGMPVCEF
modifications: left off: a dimerising Fc or GST
ability of p110 fragment to bind p85β subunit (p85β): capable of binding | ability of p110 fragment to bind p85α subunit (p85α [4]): capable of binding
